These results are taken from patent US10513545B2, “Fusion polypeptide in which anti-inflammatory polypeptide and ferritin monomer fragment are bound and pharmaceutical composition for preventing and treating inflammatory diseases, containing same as active ingredient” (KYUNGPOOK NATIONAL UNIVERSITY INDUSTRY-ACADEMIC COOPERATION …, priority 2015, dated 2019).

Experiment [1] addresses T1, soluble EPCR (sEPCR) (Homo sapiens, UniProt Q9UNN8).
T1 construct: 96-well flat microtiter plates were coated with soluble EPCR
T1 sequence (Q9UNN8 18-210 limits assumed): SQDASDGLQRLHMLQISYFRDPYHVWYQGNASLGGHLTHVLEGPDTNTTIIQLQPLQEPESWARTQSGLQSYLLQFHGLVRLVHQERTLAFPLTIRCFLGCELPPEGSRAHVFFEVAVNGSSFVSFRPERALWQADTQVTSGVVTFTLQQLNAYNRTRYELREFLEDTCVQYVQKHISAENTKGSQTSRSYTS
The following applies: in an aqueous solution; read-out: previously reported binding affinity for PC to sEPCR; cited from earlier work.

For experiment [2], the target named is T1, soluble EPCR (sEPCR). Briefly: solid-phase ELISA for binding affinity to soluble EPCR. The following applies: FIG. 9, read-out: Kd(app) for the interaction with sEPCR. The method, then:
9. Enzyme-Linked Immunosorbent Assays (ELISA) for Evaluating EPCR (Endothelial Protein C Receptor) Binding Affinity
To evaluate the interaction of the wild-type PC, PC-Gla peptides, TFG, and TFMG with EPCR, 96-well flat microtiter plates were coated with soluble EPCR in 20 mM carbonate-bicarbonate buffer (pH 9.6) containing 0.02% sodium azide, overnight at 4° C. After the plates were washed three times in TBS buffer (0.1 M NaCl, 0.02 M Tris-HCl, pH 7.4) containing 0.05% Tween 20, the plates were incubated with wild-type PC, PC-Gla peptides, TFG, and TFMG (7-1000 nM) diluted in the buffer for 1 h. After the plates were rinsed again, they were incubated with a goat anti-protein C polyclonal antibody (1:1000) for 1 h. Then, the plates were washed and incubated with rabbit anti-goat IgG (KPL, MD, 1:1000) for 1 h. After washing, the plates were incubated with 2,2′-azino-di(3-ethylbenzthiazoline-6-sulfonate) (ABTS; KPL, Gaithersburg, Md.). Colorimetric analysis was performed by measuring absorbance values at 405 nm.
A general note: An ELISA detects its analyte on a solid surface through an enzyme-linked reagent.

Experiment [3] has as its system PAR-1. Briefly: PAR-1 cleavage assay in transfected HUVECs (ALP activity). Type of experiment: cell-based. The following applies: FIG. 13. The method, then: HUVECs at 90% confluence in 24-well plates were transiently transfected with pRc/RSV containing ALP-PAR-1-TF cDNA in antibiotic-free Opti-MEM medium using Lipofectamine (Invitrogen) according to the manufacturer's instruction. On the following day, cells were washed and incubated in serum-free medium for 5 h. Cells were then incubated for an additional hour with thrombin, TRAP, TFG, or TFMG. Conditioned medium was collected and centrifuged to remove cellular debris. Supernatant was collected, and ALP (alkaline phosphatase) activity was measured using EnzoLyte™ p-nitrophenyl phosphate alkaline phosphatase assay kit (AnaSpec, San Jose, Calif.) according to the manufacturer's instructions.

Like-named read-outs stand apart in the source and are kept apart here.

Regarding “wild type PC: wild-type Protein C, comparator in the EPCR binding ELISA [reference compound]”, the values for the Kd in experiment [1] and in experiment [2] were 29 nM and ~31.3 nM, respectively. “TRAP peptides: thrombin receptor agonist peptide TFLLRN (SEQ ID NO: 3), activates PAR-1 (Thrombin receptor agonist peptide (TRAP)) [reference compound]”: the “PAR-1 cleavage activity (ability to activate PAR-1)” value in experiment [3] is “strong similarities”.
